Laboratory results published in patent US20140031234A1 (published 2014).

Molecular target: the molecule itself
Assay: Sephacryl S100 gel filtration; self-association

B1: Strep-tagged Δ513 of NPR1 (other)
chain: AVLDQIMNCEDLTQLACGEDDTAEKRLQKKQRYMEIQETLKKAFSEDNLELGNSSLTDSTSSTSKSTGGKRSNRKLSHRRR
notes: E. coli-produced; used in S100 gel filtration; not shown: N-terminal Strep-Tag (and any vector linker)
  binding result: binds
